Measured values published in patent publication US20160032259A1 (KOREA ADVANCED INSTITUTE OF SCIENCE AND TECHNOLOGY KAIST, published 2016).

B1: VEGF-Trap (Fc fusion, UniProt P17948 129-230, looked up, not shown: a dimerising Fc or GST)
chain: SDTGRPFVEMYSEIPEIIHMTEGRELVIPCRVTSPNITVTLKKFPLDTLIPDGKRIIWDSRKGFIISNATYKEIGLLTCEATVNGHLYKTNYLTHRQTNTIIDVVLSPSHGIELSVGEKLVLNCTARTELNVGIDFNWEYPSSKHQHKKLVNRDLKTQSGSEMKKFLSTLTIDGVTRSDQGLYTCAASSGLMTKKNSTFVRVHEK
modifications: N-glycans at Asn61, Asn93 and Asn328
B2: hVEGF-A165 (ligand, human, UniProt P15692-4 27-191, looked up)
chain: APMAEGGGQNHHEVVKFMDVYQRSYCHPIETLVDIFQEYPDEIEYIFKPSCVPLMRCGGCCNDEGLECVPTEESNITMQIMRIKPHQGQHIGEMSFLQHNKCECRPKKDRARQENPCGPCSERRKHLFVQDPQTCKCSCKNTDSRCKARQLELNERTCRCDKPRR
notes: The cell assays name only 'VEGF-A' without the isoform
B3: PlGF (ligand)
chain: LPAVPPQQWALSAGNGSSEVEVVPFQEVWGRSYCRALERLVDVVSEYPSEVEHMFSPSCVSLLRCTGCCGDENLHCVPVETANVTMQLLKIRSGDRPSYVELTFSQHVRCECRHSPGRQSPDMPGDFRADA

Key:
PlGF [1] = biological target: B3; assay: solid phase binding ELISA; PlGF coated, Fc fusion titrated, anti-human Fc-HRP
Protocol: (§1) The binding affinities of VEGF-Grabs to ligands were measured by ELISA as described previously. Briefly, the MaxiSorp plates (Nunc) were coated with either hVEGF-A₁₆₅(150 ng/ml), PlGF (62.5 ng/ml), or hVEGF-B (125 ng/ml) and serially increasing amounts (0.1 nM-10 μM) of VEGF-Grabs or VEGF-Trap were added. After washing, the plates were incubated with HRP-conjugated goat anti-human Fc antibody. Then, 3,3′,5,5′-tetramethylbenzidine (TMB) solution (Sigma-Aldrich) was added and absorbance was measured by ELISA reader (BioRad) at 450 nm.

PlGF [2] = biological target: B3; assay: solid phase binding ELISA; PlGF coated; reference VT
Protocol: as §1

hVEGF-A165 [3] = biological target: B2; assay: cell-based or functional assay
hVEGF-A165 [4] = biological target: B2; assay: solid phase binding ELISA; hVEGF-A165 coated; reference VT
Protocol: as §1

hVEGF-A165 [5] = biological target: B2; assay: solid phase binding ELISA; hVEGF-A165 coated, Fc fusion titrated, anti-human Fc-HRP
Protocol: as §1

VEGF-Trap [6] = biological target: B1; assay: as above
Protocol: as §1

VEGF-Trap [7] = biological target: B1; assay: solid phase binding ELISA; PlGF coated, Fc fusion titrated, anti-human Fc-HRP
Protocol: as §1

Binder	Kd (PlGF [1])	fold more potent binding affinity than VT (PlGF [2])	IC50 of VEGF-A-induced proliferation of HUVECs (hVEGF-A165 [3])	fold more efficient than VT in inhibiting VEGF-A-induced proliferation of HUVECs (hVEGF-A165 [3])	fold higher affinity than VT (hVEGF-A165 [4])	Kd (hVEGF-A165 [5])	Kd (VEGF-Trap [6])	Kd (VEGF-Trap [7])
VEGF-Grab1 (Fc fusion, O-linked glycan (HexNAc1Hex1NeuAc1) at Ser135; N-glycans at Asn61, Asn93 and Asn308; no evidence of O-glycosylation at Thr138, Produced in CHO cells, protein A purified; also called G1; VEGF-Grabs) EFGRPFVEMYSEIPEIIHMYEGRELVIPCRVTSPNITVTLKKFPLDTLIPDGKRIIWDSRKGFIISNATYKEIGLLTCEATVNGHLYKTNYLTHRQTNTIIDVQISTPSPVTLLRGHTLVLNCTRTTPLNTRVQMTWSYPDEKNKRASVRRRIDQSNSHANIFYSVLTIDKMQNKDKGLYTCRVRSGPSFKSVNTSVHIYDKALEDKTHTCPPCPAPELLGGPSVFLFPPKPKDTLMISRTPEVTCVVVDVSHEDPEVKFNWYVDGVEVHNAKTKPREEQYNSTYRVVSVLTVLHQDWLNGKEYKCKVSNKALPAPIEKTISKAKGQPREPQVYTLPPSREEMTKNQVSLTCLVKGFYPSDIAVEWESNGQPENNYKYYPPVLDSDGSFFLYSKKTVDKSRWQQGNVFSCSVMHEALHNHYTQKSLSLSPGK	2.8 nM	18.5 fold	1.7 nM	2.8 fold	1.1 fold	0.79 nM		
VEGF-Grab3 (Fc fusion, O-linked glycan (HexNAc1Hex1NeuAc1) at Ser135; N-glycans at Asn61, Asn93 and Asn308; mutated Asn172 not glycosylated; no evidence of O-glycosylation at Thr138, Produced in CHO cells, protein A purified; also called G3; VEGF-Grabs) EFGRPFVEMYSEIPEIIHMYEGRELVIPCRVTSPNITVTLKKFPLDTLIPDGKRIIWDSRKGFIISNATYKEIGLLTCEATVNGHLYKTNYLTHRQTNTIIDVQISTPSPVTLLRGHTLVLNCTRTTPLNTRVQMTWSYPDEKNKNASVRRRIDQSNSHANIFYSVLTIDKMQNKDKGLYTCRVRSGPSFKSVNTSVHIYDKALEDKTHTCPPCPAPELLGGPSVFLFPPKPKDTLMISRTPEVTCVVVDVSHEDPEVKFNWYVDGVEVHNAKTKPREEQYNSTYRVVSVLTVLHQDWLNGKEYKCKVSNKALPAPIEKTISKAKGQPREPQVYTLPPSREEMTKNQVSLTCLVKGFYPSDIAVEWESNGQPENNYKYYPPVLDSDGSFFLYSKKTVDKSRWQQGNVFSCSVMHEALHNHYTQKSLSLSPGK	6.9 nM	6.7 fold	2.4 nM	2 fold	1.5 fold	0.56 nM		
B1			4.8 nM					
B2							0.84 nM	
B3								46 nM
